Each block holds one substance with its values, some of them ahead of it.
Target: rpod_ecoli rpoD (UniProt P00579)
Sequence (P00579 whole entry): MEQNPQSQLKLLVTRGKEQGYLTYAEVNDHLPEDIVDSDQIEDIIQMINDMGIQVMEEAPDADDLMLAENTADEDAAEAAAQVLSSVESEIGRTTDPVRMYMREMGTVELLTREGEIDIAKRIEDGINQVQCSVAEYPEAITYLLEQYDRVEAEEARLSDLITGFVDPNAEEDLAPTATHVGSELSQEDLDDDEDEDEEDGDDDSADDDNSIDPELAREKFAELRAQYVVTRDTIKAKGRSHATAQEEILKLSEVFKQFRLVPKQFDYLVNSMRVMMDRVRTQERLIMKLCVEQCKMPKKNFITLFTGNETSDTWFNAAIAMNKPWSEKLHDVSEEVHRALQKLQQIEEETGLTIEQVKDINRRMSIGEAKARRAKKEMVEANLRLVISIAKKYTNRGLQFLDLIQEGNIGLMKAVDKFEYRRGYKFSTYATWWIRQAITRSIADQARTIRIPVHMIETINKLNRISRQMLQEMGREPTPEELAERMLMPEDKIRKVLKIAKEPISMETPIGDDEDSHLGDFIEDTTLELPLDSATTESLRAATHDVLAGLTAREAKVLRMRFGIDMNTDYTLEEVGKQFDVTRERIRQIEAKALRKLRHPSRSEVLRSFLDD

Substance: DNA-directed RNA polymerase subunit beta' (Escherichia coli (strain K12)) (from UniProt P0A8T7) A302D
effect of a mutation on the interaction: decreasing interaction

Substance: DNA-directed RNA polymerase subunit beta' (Escherichia coli (strain K12)) (from UniProt P0A8T7) Q300E
effect of a mutation on the interaction: increasing interaction

Substance: DNA-directed RNA polymerase subunit beta' (Escherichia coli (strain K12)) (from UniProt P0A8T7) N309D
effect of a mutation on the interaction: increasing interaction

Substance: DNA-directed RNA polymerase subunit beta' (Escherichia coli (strain K12)) (from UniProt P0A8T7) R297S
effect of a mutation on the interaction: decreasing interaction

The next lines start with the values.

effect of a mutation on the interaction: decreasing interaction
Substance: DNA-directed RNA polymerase subunit beta' (Escherichia coli (strain K12)) (from UniProt P0A8T7) R275Q

effect of a mutation on the interaction: decreasing interaction
Substance: DNA-directed RNA polymerase subunit beta' (Escherichia coli (strain K12)) (from UniProt P0A8T7) R293Q

effect of a mutation on the interaction: decreasing interaction
Substance: DNA-directed RNA polymerase subunit beta' (Escherichia coli (strain K12)) (from UniProt P0A8T7) E295K
